Test results from US20050163775A1, “Combination therapy for B cell disorders” (Genentech, Inc., priority 2003, published 2005).
Each block holds one molecule with its values, some of them ahead of it. Where a SMILES comes first, the peptide text is derived from it. Bridges are numbered along the chain shown (N, C = ends). Where no end group is shown, it is not given here.

Assays:
BLyS = molecular target: T1, BLyS (Homo sapiens, UniProt Q9Y275); assay: Competitive displacement ELISA (biotinylated miniBR3), peptide-PEG conjugates; type: binding
T1 construct: A DNA fragment encoding human BAFF (residues 82-285) was cloned; His-tag (with thrombin cleavage site) (N, cleaved yes); made in house; host or cells: E. coli BL21 (DE3)
T1 sequence (Q9Y275 82-285): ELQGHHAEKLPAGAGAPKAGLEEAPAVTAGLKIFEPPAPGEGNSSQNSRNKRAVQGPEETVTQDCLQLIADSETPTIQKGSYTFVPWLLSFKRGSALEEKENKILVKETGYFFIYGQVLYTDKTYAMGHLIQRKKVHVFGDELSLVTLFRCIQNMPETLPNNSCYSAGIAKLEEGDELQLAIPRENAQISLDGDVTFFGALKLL
Procedure: The plate was washed with PBS and blocked with 1% skim milk in PBS. […] After washing with PBS/0.05% Tween, 100 μl well of each dilution was transferred and incubated for 1 hour at room temperature. The plate was washed with PBS/0.05% Tween and incubated 15 min with 100 μl/well of 0.1 U/ml Streptavidin-POD (Boehringer Mannheim) in PBS/0.05% Tween.

B cells [1] = assay: B cell depletion by anti-CD20 mAb, BR3-Fc or combination in hCD20+ mice (FIG. 29, 30); type: in vivo, mouse
Procedure: FACS analysis was performed on of spleen, blood, lymph node B cells (gated on CD21^+CD23^+).
(§1) Mice were treated with control IgG2a, BAFFR/BR3-Fc (100 μg/mouse IP daily for 12 days), anti-hCD20 mAb (100 μg/mouse IP on day 9) or the combination of BAFFR/BR3-Fc and anti-hCD20 mAb (same dosing as single treatment groups). B220^+ splenocytes were isolated on day 13 and stained for CD21 and CD23. N=5 mice/group.
In the Experimental Examples, the BR3-Fc or BAFFR/BR3-Fc used is hBR3-Fc of SEQ ID. NO. 2. […] Each group consisted of 4 mice. Two days following the last injection, the mice were sacrificed and analyzed for hCD20^+ B cells. FACS analysis of spleen, blood, lymph node and Peyer's Patches were analyzed for B cell markers (CD21^+CD23^+).
as §1, with “For the experiment shown in FIG. 30, hCD20 Tg+ mice” for “Mice”, “mice/group. […] The mice were treated with single doses of 0.1 mg control IgG2a, BAFF/BR3-Fc or anti-hCD20 mAb. Splenocytes were analyzed on day 4. N=5 mice/group.” for “mice/group.”

[2] = Serum IgG and IgM in BR3-Fc treated mice; type: in vivo, mouse
[3] = Expected serum IgG and IgM in responding human patients; type: in vivo; settings: human patients responding to treatment
BAFF/BLyS = molecular target: T2, BAFF/BLyS (Mus musculus, UniProt Q9WU72); settings: lupus-prone mice; cited from earlier work
T2 construct: host or cells: lupus-prone mice

[4] = system: T-independent B cell response; assay: T-independent immune response to Streptococcus pneumoniae IV after B cell depletion; type: in vivo, mouse; settings: mAb day 0, S. pneumoniae IV i.v. day 7, response day 11
Procedure: On the 3 panels at the right, the spleen cells were stained for the streptococcus polysaccharide-phosphatidyl choline (the TI antigen). CD138 is a marker for plasma cells.
Next, it was determined whether upon B cell depletion, the mice were able to develop T independent immune response. […] At day 7, the mice were injected i.v. with Streptococcus pneumoniae IV to induce a response to the polysaccharide.

lymphoid B cell lines = settings: binds human complement; cited from earlier work
B cells [5] = settings: peripheral blood, lymph nodes, bone marrow; cited from earlier work
[6] = molecular target: T3, human BAFF (residues 82-285) (human, UniProt Q9Y275 82-285); assay: phage display selection on BAFF
T3 construct: Coated on plates in the ELISAs; also used biotinylated or free in solution for phage sorting; also called BAFF82-285; BLyS82-285
T3 sequence (Q9Y275 82-285): as above

[7] = molecular target: T3, human BAFF (residues 82-285); assay: competitive displacement ELISA on BAFF-coated plates, biotinylated miniBR3 as tracer

binding result [6]: binds
B11: SEQ ID NO 120 (peptide)
peptide: ECFDVLVHRWVPCGLIR

binding result [7]: binds
B12: Ac-ECFDLLVRAWVPCSVLK-NH2 (BLyS0051) (peptide)
peptide: Ac-ECFDLLVRAWVPCSVLK-NH2
modifications: disulfide 2-13 (inferred)

binding result [6]: binds
B13: SEQ ID NO 127 (peptide)
peptide: ECFDALVHRWVDCAVLG
modifications: disulfide 2-13 (inferred)

binding result [6]: binds
B14: SEQ ID NO 118 (peptide)
peptide: ECFDPLVRVWVPCTVLR

binding result [6]: binds
B15: SEQ ID NO 116 (peptide)
peptide: ECFDILVGRWVPCGLIH
modifications: disulfide 2-13 (inferred)

binding result [6]: binds
B16: SEQ ID NO 122 (peptide)
peptide: ECFDTLVNAWVPCNLLD
modifications: disulfide 2-13 (inferred)

The remaining lines, values behind:

Molecule: CC(=O)N[C@@H](CCC(=O)O)C(=O)N[C@H]1CSSC[C@@H](C(=O)NCC(=O)N[C@@H](CC(C)C)C(=O)N[C@@H](CC(C)C)C(=O)N[C@@H](CCCNC(=N)N)C(N)=O)NC(=O)[C@@H]2CCCN2C(=O)[C@H](C(C)C)NC(=O)[C@H](Cc2c[nH]c3ccccc23)NC(=O)[C@H](Cc2c[nH]cn2)NC(=O)[C@H](CCCNC(=N)N)NC(=O)[C@H](C(C)C)NC(=O)[C@H](CC(C)C)NC(=O)[C@H](CC(C)C)NC(=O)[C@H](CC(=O)O)NC(=O)[C@H](Cc2ccccc2)NC1=O [BLyS0048] (Ac-ECFDLLVRHWVPCGLLR-NH2; disulfide 2-13)
IC50 (BLyS; 3 ng/ml biotinylated miniBR3, four-parameter fit): 14 nM | IC50 (BLyS; separate experiment): 15 nM

Molecule: BR3-Fc: hBR3-Fc immunoadhesin of SEQ ID NO. 2, BAFF antagonist
T2 and follicular B cells in the spleen (B cells [1]; hCD20+ mice): decreases | marginal zone B cells in the spleen (B cells [1]; hCD20+ mice): decreases | mature circulating B cells in the blood and lymph nodes (B cells [1]; hCD20+ mice, 100 micrograms every other day Days 1 through 12): decreases | MZ and T2/FO B cells in spleen (FIG. 30, panel 3) (B cells [1]; treatment for ~2 weeks, 100 μg/mouse IP daily for 12 days, splenocytes day 13): marked decrease | Serum levels of IgG and IgM [2]: reduced | serum IgG and IgM levels [3]: reduction in serum IgG and IgM levels | autoimmune serologies, renal pathology and mortality (BAFF/BLyS): improved autoimmune serologies, renal pathology and mortality

Molecule: rituximab [Rituxan]
B cell response from the marginal zone and germinal centers of the spleen to T-independent antigen [4]: did not affect the B cell response | complement-dependent cytotoxicity (CDC) (lymphoid B cell lines): lyses lymphoid B cell lines through complement-dependent cytotoxicity (CDC) | B cell depletion (B cells [5]): depletes B cells from the peripheral blood, lymph nodes, and bone marrow

B1: SEQ ID NO 125 (peptide)
peptide: ECFDLLVNDWVPCGAIT
modifications: disulfide 2-13 (inferred)
binding result [6]: binds

B2: SEQ ID NO 121 (peptide)
peptide: ECFDHLVRIWVPCTALA
modifications: disulfide 2-13 (inferred)
binding result [6]: binds

B3: Ac-ECFDLLVRHWVACGLLR-NH2 (BLyS0027) (peptide)
peptide: Ac-ECFDLLVRHWVACGLLR-NH2
modifications: disulfide 2-13 (inferred)
binding result [7]: binds

B4: SEQ ID NO 124 (peptide)
peptide: ECFDRLVNAWVDCRLLA
modifications: disulfide 2-13 (inferred)
binding result [6]: binds

B5: SEQ ID NO 126 (peptide)
peptide: ECFDALVRRWVDCSLLR
binding result [6]: binds

B6: SEQ ID NO 115 (peptide)
peptide: ECFDLLVRRWVPCHLIT
binding result [6]: binds

B7: SEQ ID NO 114 (peptide)
peptide: ECFDRLVRAWVPCTALT
modifications: disulfide 2-13 (inferred)
binding result [6]: binds

B8: SEQ ID NO 123 (peptide)
peptide: ECFDRLVNGWVPCAVLH
modifications: disulfide 2-13 (inferred)
binding result [6]: binds

B9: SEQ ID NO 119 (peptide)
peptide: ECFDSLVRAWVPCGVLS
binding result [6]: binds

B10: SEQ ID NO 117 (peptide)
peptide: ECFDPLVRDWVRCDILT
modifications: disulfide 2-13 (inferred)
binding result [6]: binds
